The DeepSol protein solubility set

test: soluble on expression in E. coli; label from the status in PepcDB or PDB records

Soluble on expression in E. coli, not soluble:
MGHHHHHHSHMANSAGSMANSAGSMATLSDFFPEADPVLEKNYRRCVDLAINMSWSVPGQFKLVETPINSFLLVGDVLPNDMIESKPVNSTNLVNIPFPLSTLGVSTSKKSVEVTSYKSETEKFQEAASISEHSIRGSIVYEGLTWITAMGYNVTDFLVNMLEQMKCPENWSGLHPVDPLACVWLLYFGPKSRCSEIACVSELFIGKKGPILLPPHMYRGDTSVNSFAHHLCQYVKHLYADYEPEILSCPLDITRVKGCLSDLRQVAESCVFLSQRCLLCHLYKQNAAVSKNILTASDCIILGGSGKSLLGTYMKSYKDPATHDSILLPTYNLEAIVNYILEHYGHETAGQEINWE
MTEQYYKIALLFNANKVYDRQVVEGIGQYIQASQCMWDIFVEDEFIYHTDTINQLSIDGIIADFDDPKTVELLQHTLIPTIAVGGSYKQADFYPHFPYIATDNMALVEMALSHLQEKGLSQFAFYGLQVNTHKHWSIERRDAFVELMEKNHYPIYLYEGVQVHAQNWLEEQQKLIVWLKSLPSHTGIIAVTDARARHLLQACEYSKIAVPEELCVVGIDNEELIQYLSRMSLSSVEQGTREIGYQAAKLLHKLLNGQKVSHTPILIPPITVHSRNSTDYRSLTDPLVIQAMHYIRHRACHRIKVGQVLDHLETSRSNLEQRFKNEMNKTIHQVIHEEKISRAKNLLQQTDISIKEITEICGYPSIQYFYSVFKKEFEMTPKEFRLNC
MGSDKIHHHHHHMTSLFYSPLIKYRVDVLPSSELKKENINTKALVVIGDGINREKISEDLELNPLLVRIVGKDSSKEEVEYNKVVLENAWLADLAPVEEIKSIDRRSLLRGEVKKAKKVDKPIYLSEYCNGLYKACNVCEFSCPYNAIKVDKKTGVNIDYTKCTSCGLCVASCPVSAIQFPSLSQNSIFELAKVKGEKRITCYRNTKNRGVKIPCLAMLSEVDIVLLRGSGNLTFECVGCELQDNLKDFIEVIKEYNERIGGISFYSPSEKIEAKETKELNTTPQSFYNRAEARRNISDELPYILFDVSIDNNRCTLCESCVNWCPTSAIMLRRSSGVEEIDFDPMKCIGCNICVNVCPESCKLEEGKTSEIPPNIASLTKVIKVEKSKSVNKEVRKLVGDELVRCRVCGAPIGSRKSLNHVKKIMIEKGASCEDEWLERCPKHRAEYAFQKQFSFNARFKPRGDLR
MGSDKIHHHHHHMTVPPRVSAGEVFQHFRGTSPLTRARLSALTGLSRAATTDRMRTLASRGLIGPANEAPSTGGRPSAQFRLMPNSGAVMSVLLGASEAKVQAFDLSGQPLSAAKPVETVRGGYAAILDSCLASAYSLLDSMDDISGQLVATGVVLDEGAPDLDWPEYFAGRPVVVDSALGAMATAEALSRTPRPQNMLFLDVGKTIGCAVLVHGRTMGGFRTSKEAFGHTPGKGTPTLPCACGIMNCLQAIAGEEAIIAGLSSDLADEPDAISGAVRRSDAAAVSALRQAGRDIGDTLLGSIHLLQPEFITVRTRWPGAADFLLAGLREAIYASGVPAVTENLVLASSTTGSPATGIALRALDAGLAVESVDRLLSAPPNLSGQRNYWPAPLKSIDRQRHAS
MRALILGGTGEGRDVAAILHVAGWRVTSSLAGRVSNPKLPVGEVRIGGFGGPAGLTQWLLREGVEVIIDATHPFAERISASAAEASRATGIPLIALHRPEWKPRPRDRWIPVTSMQEAADKAARDYHHIFLTIGRQQLAPFAHDAHNLYVVRAVEPPQVALPQRHRLILSRGPFTLESEKKLMIDNQIDCVVTKNSGGPLTHAKLDAARDLGIDVVMVQRPQLPKVTHVATSAAEVAEIIDSL
MDKADLYEKNQSRKDILNYYREEDKDFEQYLNFRENRKMLQQAFESGTLIRKQNYRARIHERMVEQPVTEKKELLRSR
MLKINVKYQLKNTLIRINIDDTEPKIYAVRGPSGIGKTTVLNMIAGLRKADEAIIEVNGQLLTDTAKNVNVKIQQRRIGYLFQDYQLFPNMTVYKNITFMAEPSEHIDQLIQTLNIDHLMKQYPMTLSGGEAQRVALARALSTKPDLILLDEPFSSLDDTTKDESITLVKRIFNEWQIPIIFVTHSNYEAEQMAHEIITIG
MMHEKNIALLCDEADRLLQLNINLLRQMVDEPDVLSDSKNENGLLFDKRKALKRIEELEGEQIKTARREMVLAVVGTMKAGKSTTINAIVGQEILPNRNRPMTSVPTLIRHVPGKTEPVLHLEHIQPVRNLLITLQEKLATPAGQQVAQSLQQTGDTRELLDILADDVWLKNEYHGEDEIFTGLASLNDLVRLAAAMGTEFPFDEYAEVQKLPVIDVAFSHLVGMDACQGTLTLLDTPGPNEAGQPQMEMMMRDQLQKASAVLAVMDYTQMNSKADEEVRKELNAIADVSAGRLFVLVNKFDEKDRNGDGADAVRQKVPAMLNSDVLPASRVYPGSSRQAYLANRALHELRKNGALPVDEAWVDDFIREAFGPMVEEDDWKDSTKVNKKAEKLWNISLIDQLITEVIQSSHSRAAALAVDSAAAKLMQNAENVSEYLSLRHQGLQQSIQSLQAHITSLLADIQEIEECQNQVTGDVRMAMEDINTKTGELLTKVCASLEEELNDYFRSGKRKEQQMLEEENSAQPRERNAFAFFHDIFGTGNQHDRMRDFDPDSPEIKFSDRRAALELMTQIESTVTSLHREAEAQFRPELEKIVSGIETGFRGTALYATENIAGRINARLEDEGFTVKISFPAVSQLQTRLAVKINLSALMEERTETVTRRRRQSGVWGTVCRWFGTSDLGWENYDEDVSRSVININKAREEVMSLTRAYFGELQASIEQDINQPVRQEIDAFFCAFREKVEQLRNTLIQSSEDHKRDQQAQERLTGRLQALNERVPELITDSKALREELETML
MRISNGSGGDNVFTSGRFRRRGAATPLISLDFIVENGQGEILLGQRLNRPAQGYWFVPGGRVCKDETLEAAFARLTQAELGVRLPLAAGTFYGVWQHFYDDNFSGEDFSTHYIVLGFRLRVAESDLRLPDAQHGSYRWLTPEQLLASDNVHENSRAYFSPDAPAVGL
PTAQQLQLTTLDGKPFDPAGLKGKWLLGVADQAACPESCARKLFITRNSHASQGKNVDRVQRVWFITDDGEVPQKVLDAYRGTLMLRARPEQLGRYLLGQDAAAPAALLGPMWVIDPLGNLMLQFPPDVDGVKVRKDISRLLYNSR
MGSDKIHHHHHHMILVLFYRTTKSHQTHSRHMSVNTTELSIEIIDIVSDRDGARLRDIVEEVDVAKSTAHKHLTTLRDSGFLVKRGEIYQVGLRFLNYGEQARSRWPGYPHIEEAIAALTERTEEECDFVAPDRGRVITIAESYHKWAKFEGTTTDGPSKEYRARTGSYYHMHATASGLAVLSTYSKSRVEDVIERWGLPARTDHTITSREELHAELEQIRERGYAVDDQGYTDGMRSIGKAVHGPEGDVIGALSVSGPTYRVDGMVLEQEVPNALRDVVDELEERLRTTN
MIQIVRDNFPGLETAEQLEDYKKTVIKNIERKTALFTKSDNGNIVGVLIFSYYSKCLSCMAVHPDYRKMGIGYAMVKKMIDLFPKDMDISVTTFREGDLKGVAPRAPYKKIGFLEDEFVEEFNYPHQKFIFRNRP
MLILRKDSKFDRKSIEELKELAEVLYNPVKTIVQIRKADPKYQIGSGLVERIAENIKEENIEIVIVGNILTPSQKYNLAKKFKVEVIDKIELVLRIFYKHARTKEAQLQVRLAELQYELPRAREKVRLAKMGEQPGFGGYGDYEVEKYYQKVKREIATIKRKLEKLREHRRVARKGRAKFDTVGLIGYTNAGKTSLLNALTGENKESKNQVFTTLTTTTRAIKGIKRKILVTDTVGFIDDLPPFMIEAFLSTIEESADSDLILIVVDASDDIEEIKRKLKVNHEILSKINCKAPIITVFNKVDKITKEKKRKILEELDRYIVNPIFVSAKYDINMDLLKEMIIEHLNLSIGTIETDNPRLISYLYENTEIIEDILEDNKHIITFRAKERDVNRILKLHKSAVLEHHHHHH
MGSDKIHHHHHHMSRRQHFAKVTPLLHRHGDYFVFIGFDYGTANCSVAVMRDGKPHLLKMENDSTLLPSMLCAPTREAVSEWLYRHHDVPADDDETQALLRRAIRYNREEDIDVTAKSVQFGLSSLAQYIDDPEEVWFVKSPKSFLGASGLKPQQVALFEDLVCAMMLHIRQQAQAQLPEAITQAVIGRPINFQGLGGDEANTQAQGILERAAKRAGFRDVVFQYEPVAAGLDYEATLQEEKRVLVVDIGGGTTDCSLLLMGPQWRSRLDREASLLGHSGCRIGGNDLDIALAFKNLMPLLGMGGETEKGIALPILPWWNAVAINDVPAQSDFYSSANGRLLNDLVRDAREPEKVALLQKVWRQRLSYRLVRSAEECKIALSSVAETRASLPFISNELATLISQRGLESALSQPLTRILEQVQLALDNAQEKPDVIYLTGGSARSPLIKKALAEQLPGIPIAGGDDFGSVTAGLARWAEVVFR
MPGPILKKCFNCRVALPEDAINTAQCQKCQKNEAKYGKPGTCQYCKLNAAFHDQKCVWCSHAERKFGNPFPCANCKLSCAFPRRESDKVEGAALLCRLCILQARHTNQTVVAGIPVPPEKPERSGEGSSTEQRDRDHRQHRPTSHHHRDHKDHHRRDDKHHHRDSNHRHAHKRRHQEEPNNNSNNGTSSSGGAPPLVPNNENGNGFPPFGDRDPGESMVKQQKMEDEIRRLKTLLAEKDQLIFDKDKQISNLKADQYNLDKKHRERVQQLIKEKEDSIRAIEQMRNSKSSKRN

Soluble on expression in E. coli, soluble:
MRFYIKTFGCQMNENDSEAMAGLLVKEGFTPASSPEEADVVIINTCAVRRKSEEKAYSELGQVLKLKKKKKIVVGVAGCVAEKEREKFLEKGADFVLGTRAVPRVTEAVKKALEGEKVALFEDHLDEYTHELPRIRTSRHHAWVTIIHGCDRFCTYCIVPYTRGRERSRPMADILEEVKKLAEQGYREVTFLGQNVDAYGKDLKDGSSLAKLLEEASKIEGIERIWFLTSYPTDFSDELIEVIAKNPKVAKSVHLPVQSGSNRILKLMNRRYTKEEYLALLEKIRSKVPEVAISSDIIVGFPTETEEDFMETVDLVEKAQFERLNLAIYSPREGTVAWKYYKDDVPYEEKVRRMQFLMNLQKRINRKLNERYRGKTVRIIVEAQAKNGLFYGRDIRNKIIAFEGEDWMIGRFADVKVEKITAGPLYGKVVWVEKTPSPVSSSE
MAHHHHHHMQRNWVLLPQTVRAGDAPKSSAVRTPTRPLPYVCLKSNDGMEFVLPEVAARQSKMLAMLLDAVYSLPERGGFAEPTNARGEQHTTVHASNNIGTMPCIPLEVLSGRILELVCRYLVQRSTSDVNSTDEFALLGELNPTSSSDQDIVLGLLMASDYLDC
SAGSVADSDAVVKLDDGHLNNSLSSPVQADVYFPRLIVPFCGHIKGGMRPGKKVLVMGIVDLNPESFAISLTCGDSEDPPADVAIELKAVFTDRQLLRNSCISGERGEEQSAIPYFPFIPDQPFRVEILCEHPRFRVFVDGHQLFDFYHRIQTLSAIDTIKINGDLQITKLG
GMGDSAGLPPIYADKPIELAPAKIITSFPVNTFLENLASAPDGTIFVTNHEVGEIVSITPDGNQQIHATVEGKVSGLAFTSNGDLVATGWNADSIPVVSLVKSDGTVETLLTLPDAIFLNGITPLSDTQYLTADSYRGAIWLIDVVQPSGSIWLEHPMLARSNSESVFPAANGLKRFGNFLYVSNTEKMLLLRIPVDSTDKPGEPEIFVEQTNIDDFAFDVEGNLYGATHIYNSVVRIAPDRSTTIIAQAEQGVIGSTAVAFGQTEGDCTAIYVVTNGGMFLPPPTGVVPANVVRLEVGKPGYPLG
QGVDQSPKPLIIGPEEDYDPGYFNNESDIIFQDLEKLKSRPAHLGVFLRYIFSQADPSPLLFYLCAEVYQQASPKDSRSLGKDIWNIFLEKNAPLRVKIPEMLQAEIDSRLRNSEDARGVLCEAQEAAMPEIQEQIHDYRTKRTLGLGSLYGENDLLDLDGDPLRERQVAEKQLAALGDILSAYAADRSAPMDFALNTYMSHAGIRLREA
